Measured values reported in the supplement of paper PMC9112550, “Optimization of the antimicrobial peptide Bac7 by deep mutational scanning” (BMC Biology, 2022).

System: Escherichia coli TOP10
Test: shrunken log2 fold change of peptide-encoding DNA abundance (4.5 h post-induction vs induction); higher = less antimicrobial activity (less host growth inhibition)
Conditions: time post-induction: 4.5 h; library: site-saturation at positions 5, 18, 19, 20
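Also: peptides expressed intracellularly from a pBAD plasmid library in pooled LB shake-flask culture, induced with 0.3% L-arabinose, DNA abundance read by NGS, three biological replicates, DESeq2 with apeglm shrinkage.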

Sequence	shrunken log2 fold change
RRIRDRPPRLPRPRPRPPHRPRP	0.195
RRIRWRPPRLPRPRPRPYCWPRP	-0.127
RRIRCRPPRLPRPRPRPEISPRP	-0.0399
RRIRSRPPRLPRPRPRPVIRPRP	-0.213
RRIRYRPPRLPRPRPRPKNEPRP	-0.372
RRIRARPPRLPRPRPRPDATPRP	1.6
RRIRARPPRLPRPRPRPYDHPRP	-0.57
RRIRVRPPRLPRPRPRPIHMPRP	-0.0179
RRIRRRPPRLPRPRPRPTQVPRP	0.677
RRIRYRPPRLPRPRPRPAWCPRP	-0.0756
RRIRERPPRLPRPRPRPSNCPRP	-0.0637
RRIRRRPPRLPRPRPRPVCAPRP	0.547
RRIRLRPPRLPRPRPRPCNPPRP	-0.000687
RRIRWRPPRLPRPRPRPMLRPRP	0.0624
RRIRDRPPRLPRPRPRPGISPRP	0.0115
RRIRARPPRLPRPRPRPIWWPRP	-0.00662
RRIRDRPPRLPRPRPRPHKMPRP	-0.293
RRIRIRPPRLPRPRPRPDVVPRP	-0.0365
RRIRGRPPRLPRPRPRPGQCPRP	0.275
RRIRPRPPRLPRPRPRPCWRPRP	0.00714
RRIRHRPPRLPRPRPRPLAMPRP	0.287
RRIRSRPPRLPRPRPRPTAIPRP	-0.0172
RRIRRRPPRLPRPRPRPKIIPRP	-0.364
RRIRWRPPRLPRPRPRPTRIPRP	1.97
RRIRCRPPRLPRPRPRPYWFPRP	-0.74

Sequence	shrunken log2 fold change
RRIRGRPPRLPRPRPRPKPLPRP	0.375
RRIRGRPPRLPRPRPRPWMYPRP	-0.0352
RRIRYRPPRLPRPRPRPMLWPRP	-0.0139
RRIRLRPPRLPRPRPRPCCIPRP	-0.0547
RRIRARPPRLPRPRPRPGRPPRP	0.801
RRIRGRPPRLPRPRPRPGIGPRP	0.942
RRIRGRPPRLPRPRPRPIGTPRP	0.334
RRIRGRPPRLPRPRPRPGDVPRP	0.347
RRIRTRPPRLPRPRPRPMQLPRP	-0.191
RRIRTRPPRLPRPRPRPRYVPRP	-0.426
RRIRVRPPRLPRPRPRPMVVPRP	-0.0329
RRIRGRPPRLPRPRPRPWVWPRP	0.368
RRIRQRPPRLPRPRPRPQPVPRP	0.00167
RRIRCRPPRLPRPRPRPIKYPRP	-0.608
RRIRVRPPRLPRPRPRPYNNPRP	-1.16
RRIRLRPPRLPRPRPRPKNCPRP	-0.5
RRIRYRPPRLPRPRPRPVRVPRP	0.0746
RRIRIRPPRLPRPRPRPPVWPRP	0.187
RRIRNRPPRLPRPRPRPDTYPRP	-0.0291
RRIRPRPPRLPRPRPRPRMTPRP	0.288
RRIRGRPPRLPRPRPRPYGVPRP	-0.128
RRIRMRPPRLPRPRPRPVFWPRP	0.884
RRIRHRPPRLPRPRPRPINDPRP	-0.887
RRIRVRPPRLPRPRPRPEIMPRP	-0.194
RRIRMRPPRLPRPRPRPQLIPRP	-0.0368

Sequence	shrunken log2 fold change
RRIRQRPPRLPRPRPRPVTVPRP	0.153
RRIRKRPPRLPRPRPRPLAMPRP	0.486
RRIRTRPPRLPRPRPRPLDDPRP	0.115
RRIRVRPPRLPRPRPRPYDKPRP	-1.05
RRIRVRPPRLPRPRPRPYQMPRP	-0.34
RRIRKRPPRLPRPRPRPWGPPRP	-0.125
RRIRFRPPRLPRPRPRPIKKPRP	0.0144
RRIRLRPPRLPRPRPRPMWSPRP	-0.0258
RRIRERPPRLPRPRPRPSWMPRP	-0.416
RRIRDRPPRLPRPRPRPADGPRP	-0.00193
RRIRFRPPRLPRPRPRPDINPRP	-0.302
RRIRIRPPRLPRPRPRPYSCPRP	-0.0992
RRIRTRPPRLPRPRPRPALSPRP	-0.0737
RRIRCRPPRLPRPRPRPRVCPRP	0.284
RRIRDRPPRLPRPRPRPIVWPRP	-0.0132
RRIRHRPPRLPRPRPRPRLDPRP	-0.0149
RRIRKRPPRLPRPRPRPKHGPRP	0.157
RRIRRRPPRLPRPRPRPFNVPRP	-0.264
RRIRCRPPRLPRPRPRPFEMPRP	-0.36
RRIRQRPPRLPRPRPRPVEHPRP	-0.00992
RRIRFRPPRLPRPRPRPCGLPRP	-0.00916
RRIRARPPRLPRPRPRPIGIPRP	0.0254
RRIRRRPPRLPRPRPRPNRGPRP	-0.0468
RRIRDRPPRLPRPRPRPAPFPRP	0.196
RRIRIRPPRLPRPRPRPINFPRP	-0.346

Sequence	shrunken log2 fold change
RRIRMRPPRLPRPRPRPQMPPRP	0.0529
RRIRSRPPRLPRPRPRPNTGPRP	-0.336
RRIRDRPPRLPRPRPRPIARPRP	0.199
RRIRYRPPRLPRPRPRPMSWPRP	-0.0422
RRIRARPPRLPRPRPRPTWKPRP	-0.0384
RRIRKRPPRLPRPRPRPVVVPRP	0.212
RRIRLRPPRLPRPRPRPRPFPRP	0.358
RRIRSRPPRLPRPRPRPIQVPRP	0.0973
RRIRQRPPRLPRPRPRPCHYPRP	-0.000921
RRIRMRPPRLPRPRPRPIEIPRP	-0.0115
RRIRKRPPRLPRPRPRPKEDPRP	0.795
RRIRRRPPRLPRPRPRPTTRPRP	0.941
RRIRLRPPRLPRPRPRPYFGPRP	-0.218
RRIRQRPPRLPRPRPRPMFPPRP	-0.181
RRIRHRPPRLPRPRPRPNNAPRP	-0.11
RRIRWRPPRLPRPRPRPSHWPRP	0.3
RRIRIRPPRLPRPRPRPDLIPRP	-0.217
RRIRQRPPRLPRPRPRPVGVPRP	0.475
RRIRQRPPRLPRPRPRPGVDPRP	0.244
RRIRFRPPRLPRPRPRPSYIPRP	-0.41
RRIRFRPPRLPRPRPRPHRLPRP	0.0835
RRIRARPPRLPRPRPRPQDGPRP	0.214
RRIRLRPPRLPRPRPRPVWEPRP	0.0556
RRIRHRPPRLPRPRPRPAITPRP	-0.0845
RRIRTRPPRLPRPRPRPYEVPRP	-0.0168

Sequence	shrunken log2 fold change
RRIRGRPPRLPRPRPRPVQDPRP	0.197
RRIRRRPPRLPRPRPRPGRFPRP	0.451
RRIRDRPPRLPRPRPRPGTEPRP	0.974
RRIRNRPPRLPRPRPRPKFMPRP	-0.0904
RRIRPRPPRLPRPRPRPENTPRP	0.11
RRIRSRPPRLPRPRPRPSFIPRP	-0.661
RRIRERPPRLPRPRPRPFFQPRP	-0.173
RRIRNRPPRLPRPRPRPIMWPRP	0.137
RRIRRRPPRLPRPRPRPCGNPRP	0.0466
RRIRCRPPRLPRPRPRPGFDPRP	0.104
RRIRNRPPRLPRPRPRPSQPPRP	-0.0682
RRIRDRPPRLPRPRPRPWYNPRP	-0.102
RRIRLRPPRLPRPRPRPWFNPRP	-0.388
RRIRSRPPRLPRPRPRPSYGPRP	-0.0636
RRIRGRPPRLPRPRPRPLTPPRP	1.43
RRIRNRPPRLPRPRPRPKLFPRP	0.371
RRIRQRPPRLPRPRPRPYSQPRP	-0.195
RRIRKRPPRLPRPRPRPAYHPRP	-0.144
RRIRWRPPRLPRPRPRPQTKPRP	0.434
RRIRIRPPRLPRPRPRPVNKPRP	-0.426
RRIRTRPPRLPRPRPRPYMGPRP	-1.93
RRIRMRPPRLPRPRPRPIISPRP	-0.0891
RRIRKRPPRLPRPRPRPNVHPRP	0.273
RRIRVRPPRLPRPRPRPRLLPRP	0.0401
RRIRGRPPRLPRPRPRPLTGPRP	0.71

Sequence	shrunken log2 fold change
RRIRQRPPRLPRPRPRPRVHPRP	-0.163
RRIRKRPPRLPRPRPRPNTCPRP	0.0343
RRIRDRPPRLPRPRPRPQWDPRP	0.101
RRIRGRPPRLPRPRPRPVYPPRP	-0.129
RRIRTRPPRLPRPRPRPPIYPRP	-0.305
RRIRHRPPRLPRPRPRPDPIPRP	0.0172
RRIRWRPPRLPRPRPRPKPQPRP	0.391
RRIRMRPPRLPRPRPRPFILPRP	-0.41
RRIRARPPRLPRPRPRPWYAPRP	-0.307
RRIRMRPPRLPRPRPRPNDGPRP	-0.0703
RRIRQRPPRLPRPRPRPRWLPRP	0.453
RRIRKRPPRLPRPRPRPNCYPRP	-0.08
RRIRRRPPRLPRPRPRPWTCPRP	0.0743
RRIRVRPPRLPRPRPRPGSRPRP	0.177
RRIRPRPPRLPRPRPRPFVPPRP	0.0581
RRIRVRPPRLPRPRPRPAPIPRP	0.152
RRIRWRPPRLPRPRPRPPTLPRP	0.315
RRIRIRPPRLPRPRPRPATEPRP	0.421
RRIRDRPPRLPRPRPRPNAMPRP	-0.0158
RRIRQRPPRLPRPRPRPKTPPRP	-0.0134
RRIRGRPPRLPRPRPRPVEGPRP	0.305
RRIRLRPPRLPRPRPRPYREPRP	-0.134
RRIRNRPPRLPRPRPRPSQMPRP	-0.232
RRIRERPPRLPRPRPRPYVDPRP	-0.0122
RRIRNRPPRLPRPRPRPFDEPRP	-0.305
